Results as given in patent US20160219844A1 (published 2016).

Target: T1, green fluorescent protein (GFP) peptide on H-2Kd (mouse)
T1 peptide: HYLSTQSAL
Assay: multimer staining
From the text: FIG. 1 is a pair of graphs showing detection of GFP-specific CD8+ T cells in founder αGFP mice generated by somatic cell nuclear transfer (“SCNT”). Cells were collected from the lymph nodes of founder αGFP mice. The cells were stained for CD8 and an anti-H-2K^d-GFP₂₀₀₋₂₀₈ pentamer. Representative FACS is shown in all 14 founders. Note that these are founder mice and thus chimeric.

- binding result: recognises
B1: GFP-specific T cell receptor (αGFP TCR) of SEQ ID NOs 2 and 4 (TCR, V domains shown)
Valpha: QQKVQQSPESLSVPEGGMASFNCTSSDRNFQYFWWYRQHSGEGPKALMSIFSDGDKKEGRFTAHLNKASLHVSLHIRDSQPSDSALYFCAASHDTNAYKVIFGKGTHLHVLP
Vbeta: DPKIIQKPKYLVAVTGSEKILICEQYLGHNAMYWYRQSAKKPLEFMFSYSYQKLMDNQTASSRFQPQSSKKNHLDLQITALKPDDSATYFCASSQGAGIYNSPLYFAAGTRLTVT
